Assay results taken from IntAct's records for PubMed 15147197.

B1: Ferredoxin--NADP reductase (Anabaena sp. (strain PCC 7119)), P21890 (parent)
chain: MSNQGAFDGAANVESGSRVFVYEVVGMRQNEETDQTNYPIRKSGSVFIRVPYNRMNQEMQRITRLGGKIVTIQTVSALQQLNGRTTIATVTDASSEIAKSEGNGKATPVKTDSGAKAFAKPPAEEQLKKKDNKGNTMTQAKAKHADVPVNLYRPNAPFIGKVISNEPLVKEGGIGIVQHIKFDLTGGNLKYIEGQSIGIIPPGVDKNGKPEKLRLYSIASTRHGDDVDDKTISLCVRQLEYKHPESGETVYGVCSTYLTHIEPGSEVKITGPVGKEMLLPDDPEANVIMLATGTGIAPMRTYLWRMFKDAERAANPEYQFKGFSWLVFGVPTTPNILYKEELEEIQQKYPDNFRLTYAISREQKNPQGGRMYIQDRVAEHADELWQLIKNQKTHTYICGLRGMEEGIDAALSAAAAKEGVTWSDYQKDLKKAGRWHVETY
B2: Ferredoxin--NADP reductase, leaf isozyme, chloroplastic (Pisum sativum (Garden pea)), P10933 (parent)
chain: MAAAVTAAVSLPYSNSTSLPIRTSIVAPERLVFKKVSLNNVSISGRVGTIRAQVTTEAPAKVVKHSKKQDENIVVNKFKPKEPYVGRCLLNTKITGDDAPGETWHMVFSTEGEVPYREGQSIGIVPDGIDKNGKPHKLRLYSIASSAIGDFGDSKTVSLCVKRLVYTNDAGEVVKGVCSNFLCDLKPGSEVKITGPVGKEMLMPKDPNATVIMLGTGTGIAPFRSFLWKMFFEKHEDYQFNGLAWLFLGVPTSSSLLYKEEFEKMKEKAPENFRLDFAVSREQVNDKGEKMYIQTRMAQYAEELWELLKKDNTFVYMCGLKGMEKGIDDIMVSLAAKDGIDWIEYKRTLKKAEQWNVEVY

Variants of: B1
Conditions: with fer1_nosso petF

Variant	effect of a mutation on the interaction
Y440W	increasing interaction
Y440S	increasing interaction

Variants of: B1
Conditions: with fer1_nosso petF
Remark: another data set of the same source

Variant	effect of a mutation on the interaction
Y440F	increasing interaction

Variants of: B2
Conditions: with fer1_pea PETF

Variant	effect of a mutation on the interaction
MAAAVTAAVSLPYSNSTSLPIRTSIVAPERLVFKKVSLNNVSISGRVGTIRAQVTTEAPAKVVKHSKKQDENIVVNKFKPKEPYVGRCLLNTKITGDDAPGETWHMVFSTEGEVPYREGQSIGIVPDGIDKNGKPHKLRLYSIASSAIGDFGDSKTVSLCVKRLVYTNDAGEVVKGVCSNFLCDLKPGSEVKITGPVGKEMLMPKDPNATVIMLGTGTGIAPFRSFLWKMFFEKHEDYQFNGLAWLFLGVPTSSSLLYKEEFEKMKEKAPENFRLDFAVSREQVNDKGEKMYIQTRMAQYAEELWELLKKDNTFVYMCGLKGMEKGIDDIMVSLAAKDGIDWIEYKRTLKKAEQWNVEVS [Y360S]	increasing interaction
MAAAVTAAVSLPYSNSTSLPIRTSIVAPERLVFKKVSLNNVSISGRVGTIRAQVTTEAPAKVVKHSKKQDENIVVNKFKPKEPYVGRCLLNTKITGDDAPGETWHMVFSTEGEVPYREGQSIGIVPDGIDKNGKPHKLRLYSIASSAIGDFGDSKTVSLCVKRLVYTNDAGEVVKGVCSNFLCDLKPGSEVKITGPVGKEMLMPKDPNATVIMLGTGTGIAPFRSFLWKMFFEKHEDYQFNGLAWLFLGVPTSSSLLYKEEFEKMKEKAPENFRLDFAVSREQVNDKGEKMYIQTRMAQYAEELWELLKKDNTFVYMCGLKGMEKGIDDIMVSLAAKDGIDWIEYKRTLKKAEQWNVEVW [Y360W]	increasing interaction
